Data reported in patent publication US11441131B2, “Heparosan synthases and use thereof for saccharide synthesis” (The Regents of the University of California, priority 2019, dated 2022).

Assays:
Thermostability assay = format: physicochemical; settings: 30 min incubation at 25-50 °C
Experimental: Thermostability assays. […] UHPLC detection was carried out similarly as described above for kinetics studies.

[1] = Relative activity comparison with acceptor GlcNAcαProNHFmoc and UDP-GlcA; format: biochemical; settings: enzyme 1.5 mg/mL; percentage conversion, 30 min, HPLC
Experimental: (§1) Reactions were stopped by heating reaction mixtures at 70° C. for 10 min, followed by incubation on ice for 30 min and centrifugation at 11,337 g for 15 min.

[2] = Coupled-enzyme reverse glycosylation assay with NmLgtA and LacβMU; format: biochemical; settings: His6-Δ80PmHS2 +, UDP-GlcNAc −
Experimental: Coupled-enzyme reverse glycosylation assay. […] Reactions were stopped by heating reaction mixtures at 70° C. for 10 min followed by incubation on ice for 30 min and centrifuged at 11,337 g for 15 min.

[3] = Protein expression and purification; set-up: species or system E. coli BL21 (DE3); settings: per L culture
Experimental: Protein expression and purification. The plasmid-bearing E. coli BL21(DE3) cells were cultured in 1 L of LB-rich media (10 g/L tryptone, 5 g/L yeast extract and 10 g/L NaCl) supplemented with ampicillin (100 μg/mL). Expression of the target protein was achieved by inducing the E. coli culture with 0.1 mM of isopropyl-1-thio-β-D-galactopyranoside (IPTG) when OD600 nm reached 0.8-1.0, followed by incubating at 20° C. for 20 h with shaking at 250 rpm in a C25KC incubator shaker (New Brunswick Scientific, Edison, N.J.). Histidine-tagged target proteins were purified from cell lysate. To obtain the cell lysate, cell pellet harvested by centrifugation at 2,795 g for 50 min was resuspended (25 mL/L cell culture) in lysis buffer (Tris-HCl, 100 mM, pH 8.0 with 0.1% Triton X-100). Sonication protocol was 2 s (sonication)/3 s (rest) for a total of 6 min on ice. Lysed cells were centrifuged at 5,000 g for 50 min and the supernatant (lysate) was collected. Purification of histidine-tagged proteins from the lysate was achieved using a Ni′-resin column. The column was pre-equilibrated with 10 column volumes of binding buffer (5 mM imidazole, 0.5 M NaCl, 50 mM Tris-HCl, pH 7.5). The lysate was then loaded, and the column was washed with 10 column volumes of binding buffer and 10 column volumes of washing buffer (16 mM imidazole, 0.5 M NaCl, 50 mM Tris-HCl, pH 7.5). The target protein was eluted with Tris-HCl buffer (50 mM, pH 7.5) containing imidazole (200 mM) and NaCl (0.5 M). The fractions containing the purified enzymes were collected, and stored at 4° C.

[4] = Relative activity comparison with acceptor GlcAβProNHFmoc (O1) and UDP-GlcNAc; format: biochemical; settings: for GlcNAcα1-4GlcAβProNHFmoc (%): percentage conversion, 30 min, HPLC
Experimental: as §1

[5] = Survival of lyophilization assay; format: physicochemical; settings: dialysis, rehydration, compared with freshly prepared enzyme
Experimental: Survival of lyophilization assays. […] The resulting powders were stored at −80° C. for 3 days. For activity assays, the dried powder was dissolved in water. […] Chromatographic separation and detection were achieved similarly as described above for the kinetics studies except that an isocratic flow (0.3 mL/min) of a mixed solvent (32% acetonitrile/68% water with 0.1% TFA) was used for elution.

[6] = Behaviour during dialysis; format: physicochemical
Isoelectric point (pI) = format: physicochemical
[7] = Effect of UDP concentration on reverse glycosylation activity; format: biochemical; settings: O6 1 mM, enzyme 15 μM
Experimental: Reactions were stopped by heating reaction mixtures at 70° C. for 10 min followed by incubation on ice for 30 min, and centrifugation at 11,337 g for 15 min. Supernatants were analyzed using an Infinity 1290 II HPLC equipped with 1260 Infinity II Diode Array Detector WR (monitored at 254 nm, Agilent Technologies, CA). An AdvanceBio Glycan Mapping column (1.8 μm particle, 2.1×150 mm, Agilent Technologies, CA) was used with a gradient (13 min) of 0.5 mL/min for 90% to 70% acetonitrile and a solution of water with 0.1% TFA for analysis.

B1: His6-Δ80PmHS2: N-terminal His6-tagged and N-terminal 80 amino acid-truncated PmHS2 (SEQ ID NO:3) (protein)
chain: MGSSHHHHHHSFEKIYTYNQALEAKLEKDKQTTSITDLYNEVAKSDLGLVKETNSANPLVSIIMTSHNTAQFIEASINSLLLQTYKNIEIIIVDDDSSDNTFEIASRIANTTSKVRVFRLNSNLGTYFAKNTGILKSKGDIIFFQDSDDVCHHERIERCVNILLANKETIAVRCAYSRLAPETQHIIKVNNMDYRLGFITLGMHRKVFQEIGFFNCTTKGSDDEFFHRIAKYYGKEKIKNLLLPLYYNTMRENSLFTDMVEWIDNHNIIQKMSDTRQHYATLFQAMHNETASHDFKNLFQFPRIYDALPVPQEMSKLSNPKIPVYINICSIPSRIAQLQRIIGILKNQCDHFHIYLDGYVEIPDFIKNLGNKATVVHCKDKDNSIRDNGKFILLEELIEKNQDGYYITCDDDIIYPSDYINTMIKKLNEYDDKAVIGLHGILFPSRMTKYFSADRLVYSFYKPLEKDKAVNVLGTGTVSFRVSLFNQFSLSDFTHSGMADIYFSLLCKKNNILQICISRPANWLTEDNRDSETLYHQYRDNDEQQTQLIMENGPWGYSSIYPLVKNHPKFTDLIPCLPFYFL
modifications: N-terminal His6 tag
increase of Tso (temperature at which the enzyme retains 50% of maximum activity) compared to WT (Thermostability assay): approximately 7 °C | GlcAβ1-4GlcNAcαProNHFmoc (%) [1]: 9.8 ± 0.4% | GlcNAcβ1-3LacβMU (%) ([2]; Reaction 1: NmLgtA +, UDP +): 9.7 ± 0.6% | LacβMU (%) ([2]; Reaction 1: NmLgtA +, UDP +): 90.3 ± 0.6% | O2 (%) ([2]; Reaction 1: NmLgtA +, UDP +): 9.3% | O3 (%) ([2]; Reaction 1: NmLgtA +, UDP +): 1.0% | O4 (%) ([2]; Reaction 1: NmLgtA +, UDP +): 16.2% | O5 (%) ([2]; Reaction 1: NmLgtA +, UDP +): 4.4% | O6 (%) ([2]; Reaction 1: NmLgtA +, UDP +): 36.2% | O7 (%) ([2]; Reaction 1: NmLgtA +, UDP +): 3.0% | O8 (%) ([2]; Reaction 1: NmLgtA +, UDP +): 20.4% | O9 (%) ([2]; Reaction 1: NmLgtA +, UDP +): 0.6% | O10 (%) ([2]; Reaction 1: NmLgtA +, UDP +): 7.3% | O12 (%) ([2]; Reaction 1: NmLgtA +, UDP +): 1.7% | LacβMU (%) ([2]; Reaction 2: NmLgtA −, UDP +): 100% | O2 (%) ([2]; Reaction 2: NmLgtA −, UDP +): 11.4% | O3 (%) ([2]; Reaction 2: NmLgtA −, UDP +): 0.7% | O4 (%) ([2]; Reaction 2: NmLgtA −, UDP +): 23.7% | O5 (%) ([2]; Reaction 2: NmLgtA −, UDP +): 5.1% | O6 (%) ([2]; Reaction 2: NmLgtA −, UDP +): 35.1% | O7 (%) ([2]; Reaction 2: NmLgtA −, UDP +): 1.2% | O8 (%) ([2]; Reaction 2: NmLgtA −, UDP +): 15.8% | O9 (%) ([2]; Reaction 2: NmLgtA −, UDP +): 0.5% | O10 (%) ([2]; Reaction 2: NmLgtA −, UDP +): 5.1% | O12 (%) ([2]; Reaction 2: NmLgtA −, UDP +): 1.2% | LacβMU (%) ([2]; Reaction 4: NmLgtA +, UDP −): 100% | O6 (%) ([2]; Reaction 4: NmLgtA +, UDP −): 100% | expression level [3]: 60 to 80 mg/L | efficiency of GlcAβProNHFmoc (O1) over GlcNAcαProNHFmoc as substrate in disaccharide production [4]: 130 fold | GlcNAcα1-4GlcAβProNHFmoc (%) ([4]; enzyme 0.06 mg/mL): 50.8 ± 6.0% | GlcNAcα1-4GlcAβProNHFmoc (%) ([4]; enzyme 1.5 mg/mL): 100% | activity after lyophilization [5]: without loss of activity | behaviour during dialysis [6]: remained soluble | pI (Isoelectric point (pI)): 6.61 | O6 (%) ([7]; UDP 0 (nM)): 100% | O4 (%) ([7]; UDP 1 (nM)): 6.7% | O5 (%) ([7]; UDP 1 (nM)): 2.6% | O6 (%) ([7]; UDP 1 (nM)): 81.6% | O8 (%) ([7]; UDP 1 (nM)): 7.9% | O10 (%) ([7]; UDP 1 (nM)): 0.8% | O1 (%) ([7]; UDP 5 (nM)): 3.4% | O2 (%) ([7]; UDP 5 (nM)): 1.5% | O3 (%) ([7]; UDP 5 (nM)): 0.6% | O4 (%) ([7]; UDP 5 (nM)): 16.9% | O5 (%) ([7]; UDP 5 (nM)): 4.2% | O6 (%) ([7]; UDP 5 (nM)): 58.0% | O7 (%) ([7]; UDP 5 (nM)): 0.4% | O8 (%) ([7]; UDP 5 (nM)): 12.8% | O10 (%) ([7]; UDP 5 (nM)): 1.9% | O12 (%) ([7]; UDP 5 (nM)): 0.2% | O1 (%) ([7]; UDP 10 (nM)): 3.4% | O2 (%) ([7]; UDP 10 (nM)): 7.8% | O3 (%) ([7]; UDP 10 (nM)): 1.5% | O4 (%) ([7]; UDP 10 (nM)): 18.9% | O5 (%) ([7]; UDP 10 (nM)): 3.8% | O6 (%) ([7]; UDP 10 (nM)): 38.0% | O7 (%) ([7]; UDP 10 (nM)): 1.8% | O8 (%) ([7]; UDP 10 (nM)): 18.6% | O9 (%) ([7]; UDP 10 (nM)): 0.7% | O10 (%) ([7]; UDP 10 (nM)): 4.2% | O12 (%) ([7]; UDP 10 (nM)): 1.1%

B2: His6-PmHS2: N-terminal His6-tagged wild-type Pasteurella multocida heparosan synthase 2 (SEQ ID NO:6) (protein)
chain: MGSSHHHHHHSSGLVPRGSHMKGKKEMTQKQMTKNPPQHEKENELNTFQNKIDSLKTTLNKDIISQQTLLAKQDSKHPLSESLENENKLLLKQLQLVLQEFEKIYTYNQALEAKLEKDKQTTSITDLYNEVAKSDLGLVKETNSANPLVSIIMTSHNTAQFIEASINSLLLQTYKNIEIIIVDDDSSDNTFEIASRIANTTSKVRVFRLNSNLGTYFAKNTGILKSKGDIIFFQDSDDVCHHERIERCVNILLANKETIAVRCAYSRLAPETQHIIKVNNMDYRLGFITLGMHRKVFQEIGFFNCTTKGSDDEFFHRIAKYYGKEKIKNLLLPLYYNTMRENSLFTDMVEWIDNHNIIQKMSDTRQHYATLFQAMHNETASHDFKNLFQFPRIYDALPVPQEMSKLSNPKIPVYINICSIPSRIAQLQRIIGILKNQCDHFHIYLDGYVEIPDFIKNLGNKATVVHCKDKDNSIRDNGKFILLEELIEKNQDGYYITCDDDIIYPSDYINTMIKKLNEYDDKAVIGLHGILFPSRMTKYFSADRLVYSFYKPLEKDKAVNVLGTGTVSFRVSLFNQFSLSDFTHSGMADIYFSLLCKKNNILQICISRPANWLTEDNRDSETLYHQYRDNDEQQTQLIMENGPWGYSSIYPLVKNHPKFTDLIPCLPFYFL
modifications: N-terminal His6 tag
GlcAβ1-4GlcNAcαProNHFmoc (%) [1]: 10.3 ± 0.3% | expression level [3]: 17 to 20 mg/L | efficiency of GlcAβProNHFmoc (O1) over GlcNAcαProNHFmoc as substrate in disaccharide production [4]: 157 fold | GlcNAcα1-4GlcAβProNHFmoc (%) ([4]; enzyme 0.06 mg/mL): 64.5 ± 1.0% | GlcNAcα1-4GlcAβProNHFmoc (%) ([4]; enzyme 1.5 mg/mL): 100% | behaviour during dialysis [6]: precipitated easily during dialysis | pI (Isoelectric point (pI)): 6.83 | O6 (%) ([7]; UDP 0 (nM)): 100% | O1 (%) ([7]; UDP 1 (nM)): 3.3% | O2 (%) ([7]; UDP 1 (nM)): 2.7% | O3 (%) ([7]; UDP 1 (nM)): 1.4% | O4 (%) ([7]; UDP 1 (nM)): 9.6% | O5 (%) ([7]; UDP 1 (nM)): 3.0% | O6 (%) ([7]; UDP 1 (nM)): 64.2% | O8 (%) ([7]; UDP 1 (nM)): 13.5% | O10 (%) ([7]; UDP 1 (nM)): 1.9% | O1 (%) ([7]; UDP 5 (nM)): 3.9% | O2 (%) ([7]; UDP 5 (nM)): 5.5% | O3 (%) ([7]; UDP 5 (nM)): 1.1% | O4 (%) ([7]; UDP 5 (nM)): 8.8% | O5 (%) ([7]; UDP 5 (nM)): 4.8% | O6 (%) ([7]; UDP 5 (nM)): 52.3% | O7 (%) ([7]; UDP 5 (nM)): 0.4% | O8 (%) ([7]; UDP 5 (nM)): 16.0% | O10 (%) ([7]; UDP 5 (nM)): 5.7% | O12 (%) ([7]; UDP 5 (nM)): 0.7% | O1 (%) ([7]; UDP 10 (nM)): 3.1% | O2 (%) ([7]; UDP 10 (nM)): 9.0% | O3 (%) ([7]; UDP 10 (nM)): 0.6% | O4 (%) ([7]; UDP 10 (nM)): 17.7% | O5 (%) ([7]; UDP 10 (nM)): 9.1% | O6 (%) ([7]; UDP 10 (nM)): 36.2% | O7 (%) ([7]; UDP 10 (nM)): 1.1% | O8 (%) ([7]; UDP 10 (nM)): 16.3% | O9 (%) ([7]; UDP 10 (nM)): 0.4% | O10 (%) ([7]; UDP 10 (nM)): 4.6% | O12 (%) ([7]; UDP 10 (nM)): 1.3%
